Data set [1] concerns the molecule itself. The data set is described as follows: AUC; sedimentation velocity, 40,000 rpm, 20 °C, samples diluted in SEC buffer to OD280 0.5; c(s) distribution and non-interacting species model.
Data set [2] concerns the molecule itself. The data set is described as follows: SEC; analytical gel filtration, Superdex 200 10/300 GL, 4 °C, 20 mM Tris-HCl with 0.2, 0.5 or 2.0 M NaCl after dialysis into the same buffer. On the technique in general: In gel filtration, larger molecules generally elute earlier.
Data set [3] deals with the molecule itself. The data set can be described thus: SAXS; ESRF BM29, samples at 5, 3 and 2 mg/mL, 10 °C; molecular mass estimated with ATSAS.

“And” between values parts separate entries of the source, which are not always exact repeats. Equal values may be shown once.

B1: AtNRP2 NT/CT (AtNRP2 residues 14-223) (domain or fragment, Arabidopsis thaliana, UniProt Q8LC68-2 14-223, looked up)
chain: ENVEQIDAELVLSIEKLQEIQDDLEKINEKASDEVLEVEQKYNVIRKPVYDKRNEIIKTIPDFWLTAFLSHPALGELLTEEDQKIFKYLSSLDVEDAKDVKSGYSITFSFNPNPFFEDGKLTKTFTFLEEGTTKITATPIKWKEGKGLANGVNHEKNGNKRALPEESFFTWFSDAQHKEDVEDEMQDEQVADIIKEDLWPNPLTYFNNDA
notes: NAP1-related protein 2 (AtNRP2), Arabidopsis thaliana, residues 14-223 (first 13 and last 35 residues removed), in pGEX-6P-1 between BamHI and SalI; A few vector residues may remain at the N-terminus after PreScission cleavage (surmise); Heated at 40 °C for 10 min before crystallization; also called AtNRP2_(14-223); GST-AtNRP2_(14-223); not shown: GST, N-terminal, cleaved
The stoichiometry N is the number of molecules, sites or subunits per partner or assembly. On to B1, for which the “stoichiometry N” value in data set [1] was 2.

B2: full-length Arabidopsis thaliana NAP1-Related Protein 1 (AtNRP1-His) (natural protein, UniProt Q9CA59 1-256, looked up)
chain: MVADKSKKSKIEEKGEEENLEQIDAELVLSIEKLQEIQDDLEKINEKASDEVLEVEQKYNVIRKPVYDKRNEVIQSIPGFWMTAFLSHPALGDLLTEEDQKIFKYLNSLEVEDAKDVKSGYSITFHFTSNPFFEDAKLTKTFTFLEEGTTKITATPIKWKEGKGLPNGVNHDDKKGNKRALPEESFFTWFTDAQHKEDAGDEIHDEVADIIKEDLWSNPLTYFNNDADEEDFDGDDDGDEEGEEDDDDEEEEDGEE
notes: NAP1-related protein 1 (AtNRP1), Arabidopsis thaliana; full-length ORF optimised for bacterial expression (Genscript) in pET22b(+) between NdeI and XhoI; also called full-length AtNRP1; not shown: His6, C-terminal, kept
Regarding B2, the binding result in data set [2] is recorded as “binds”.

B3: full-length Arabidopsis thaliana NAP1-Related Protein 2 (AtNRP2-His) (natural protein, UniProt Q8LC68-2 1-256, looked up)
chain: MVTDKSKKAKTEEENVEQIDAELVLSIEKLQEIQDDLEKINEKASDEVLEVEQKYNVIRKPVYDKRNEIIKTIPDFWLTAFLSHPALGELLTEEDQKIFKYLSSLDVEDAKDVKSGYSITFSFNPNPFFEDGKLTKTFTFLEEGTTKITATPIKWKEGKGLANGVNHEKNGNKRALPEESFFTWFSDAQHKEDVEDEMQDEQVADIIKEDLWPNPLTYFNNDADEEDFDGDDDGDEEEKEGDSDEDDDEEDEVGEE
notes: NAP1-related protein 2 (AtNRP2), Arabidopsis thaliana; full-length ORF optimised for bacterial expression (Genscript) in pET22b(+) between NdeI and XhoI; Predominantly a dimer in solution; tetramer and a higher species also seen by AUC; also called full-length AtNRP2; not shown: His6, C-terminal, kept
Consider B3, for which, in data set [1], the “stoichiometry N” value is 2 and 4.

B4: AtNRP1 NT/CT (AtNRP1 residues 14-226) (domain or fragment, Arabidopsis thaliana, UniProt Q9CA59 14-226, looked up)
chain: KGEEENLEQIDAELVLSIEKLQEIQDDLEKINEKASDEVLEVEQKYNVIRKPVYDKRNEVIQSIPGFWMTAFLSHPALGDLLTEEDQKIFKYLNSLEVEDAKDVKSGYSITFHFTSNPFFEDAKLTKTFTFLEEGTTKITATPIKWKEGKGLPNGVNHDDKKGNKRALPEESFFTWFTDAQHKEDAGDEIHDEVADIIKEDLWSNPLTYFNND
notes: NAP1-related protein 1 (AtNRP1), Arabidopsis thaliana, residues 14-226, in pGEX-6P-1 between BamHI and SalI; A few vector residues may remain at the N-terminus after PreScission cleavage (surmise); also called AtNRP1_(14-226); GST-AtNRP1_(14-226); not shown: GST, N-terminal, cleaved
For B4, the “stoichiometry N” value in data set [3] was 2.
